Data reported in PMC11347675.

Key:
[1] = molecular target: BG505-SOSIP (soluble SOSIP Env trimer of HIV-1 strain BG505) (HIV-1 (strain BG505)) (UniProt Q2N0S6); assay: cryo-EM structure; unliganded SOSIP trimers purified by GNL/SEC; 2.16 mg/mL 1059-SOSIP, 3.64 mg/mL BG505-SOSIP; 0.085 mM DDM before vitrification; refined with C1 symmetry
[2] = molecular target: 1059-SOSIP (soluble SOSIP Env trimer of the transmitted/founder HIV-1 strain 1059) (HIV-1 (strain 1059, transmitted/founder)); assay: as above

Substance	stoichiometry N [1]	stoichiometry N [2]
BG505-SOSIP (soluble SOSIP Env trimer of HIV-1 strain BG505) (from UniProt Q2N0S6 1-860; Q2N0S6 1-860) (complex)	3	
1059-SOSIP (soluble SOSIP Env trimer of the transmitted/founder HIV-1 strain 1059) (complex)		3
